The text below walks through data of patent US20190352420A1 (Boehringer Ingelheim, published 2019).

One experiment concerns the target T1, non-cell-bound CD73 (human, UniProt P21589 27-549, limits assumed).
T1 sequence (looked up): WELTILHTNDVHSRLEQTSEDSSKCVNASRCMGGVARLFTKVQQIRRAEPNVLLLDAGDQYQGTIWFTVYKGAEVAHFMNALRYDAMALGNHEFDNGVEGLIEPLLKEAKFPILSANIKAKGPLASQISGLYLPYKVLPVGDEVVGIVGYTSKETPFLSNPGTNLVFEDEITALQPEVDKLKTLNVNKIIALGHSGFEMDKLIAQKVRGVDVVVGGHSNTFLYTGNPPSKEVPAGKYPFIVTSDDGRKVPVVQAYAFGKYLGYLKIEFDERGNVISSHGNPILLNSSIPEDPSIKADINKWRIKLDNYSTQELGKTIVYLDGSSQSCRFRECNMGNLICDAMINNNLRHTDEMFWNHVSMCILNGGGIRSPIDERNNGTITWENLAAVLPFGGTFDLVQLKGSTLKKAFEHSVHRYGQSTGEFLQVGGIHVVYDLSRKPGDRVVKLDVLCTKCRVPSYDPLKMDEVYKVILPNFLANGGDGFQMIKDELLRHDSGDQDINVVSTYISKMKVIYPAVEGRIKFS
In words: cell-based or functional assay.

The target in the next experiment is T2, cell-bound CD73 (human, UniProt P21589 27-549).
T2 sequence (looked up): T1 sequence (looked up)
In words: cell-based or functional assay.

"BMS986179" (antibody) gave a % of max. adenosine inhibition, Colo-201 culture supernatant in the experiment with non-cell-bound CD73 of 63%. In the experiment with cell-bound CD73, this substance registered a % of max. adenosine inhibition, washed Colo-201 cells of 84%; a CD8 T cell proliferation [% of control], Donor A, 1 nM antibody of 40.7%; a CD8 T cell proliferation [% of control], Donor B, 1 nM antibody of 61.7%; a CD8 T cell proliferation [% of control], Donor C, 1 nM antibody of 99.6%. Moreover, in the experiment with cell-bound CD73, the CD8 T cell proliferation [% of control], Donor D, 1 nM antibody was 98.7%; the CD8 T cell proliferation [% of control], Donor E, 1 nM antibody was found to be 95.4%; the CD8 T cell proliferation [% of control], Donor F, 1 nM antibody stood at 22.5%; the CD73 surface reduction [%] on Colo201 cells, 24 h, flow cytometry amounted to 58%. Moreover, in the experiment with cell-bound CD73, the IFNγ release [fold change over control], Donor A, 1 nM antibody is 10.9 fold; the IFNγ release [fold change over control], Donor B, 1 nM antibody worked out at 5.2 fold; the IFNγ release [fold change over control], Donor C, 1 nM antibody was determined as 36.4 fold; the IFNγ release [fold change over control], Donor D, 1 nM antibody is 13.3 fold. In the experiment with cell-bound CD73, this substance showed an IFNγ release [fold change over control], Donor E, 1 nM antibody of 7.2 fold; an IFNγ release [fold change over control], Donor F, 1 nM antibody of 2.9 fold; a Max. adenosine inhibition [%] in Colo201 cells of 68%.

"MEDI9447" (antibody) had a % of max. adenosine inhibition, Colo-201 culture supernatant with non-cell-bound CD73 of 56%. Besides, in the experiment with cell-bound CD73, the % of max. adenosine inhibition, washed Colo-201 cells is 62%; the CD8 T cell proliferation [% of control], Donor A, 1 nM antibody was 43.9%; the CD8 T cell proliferation [% of control], Donor B, 1 nM antibody was 46.7%; the CD8 T cell proliferation [% of control], Donor C, 1 nM antibody turned out to be 115%. Besides, in the experiment with cell-bound CD73, the CD8 T cell proliferation [% of control], Donor D, 1 nM antibody stood at 98%; the CD8 T cell proliferation [% of control], Donor E, 1 nM antibody came out at 85.5%; the CD8 T cell proliferation [% of control], Donor F, 1 nM antibody was -34.1%; the CD73 surface reduction [%] on Colo201 cells, 24 h, flow cytometry came to 17%. In the experiment with cell-bound CD73, this substance gave an IFNγ release [fold change over control], Donor A, 1 nM antibody of 7.7 fold; an IFNγ release [fold change over control], Donor B, 1 nM antibody of 5.3 fold; an IFNγ release [fold change over control], Donor C, 1 nM antibody of 16.2 fold; an IFNγ release [fold change over control], Donor D, 1 nM antibody of 20.7 fold. Also, in the experiment with cell-bound CD73, the IFNγ release [fold change over control], Donor E, 1 nM antibody was 5 fold; the IFNγ release [fold change over control], Donor F, 1 nM antibody is 1.1 fold; the Max. adenosine inhibition [%] in Colo201 cells turned out to be 63%.
